In IntAct's records for PubMed 34927784:

Assays:
[1] = target: erep1_human ENTREP1 (UniProt Q15884)
[2] = target: cxcr4_human CXCR4 (UniProt P61073)
Chain of cxcr4_human CXCR4 (P61073 whole entry): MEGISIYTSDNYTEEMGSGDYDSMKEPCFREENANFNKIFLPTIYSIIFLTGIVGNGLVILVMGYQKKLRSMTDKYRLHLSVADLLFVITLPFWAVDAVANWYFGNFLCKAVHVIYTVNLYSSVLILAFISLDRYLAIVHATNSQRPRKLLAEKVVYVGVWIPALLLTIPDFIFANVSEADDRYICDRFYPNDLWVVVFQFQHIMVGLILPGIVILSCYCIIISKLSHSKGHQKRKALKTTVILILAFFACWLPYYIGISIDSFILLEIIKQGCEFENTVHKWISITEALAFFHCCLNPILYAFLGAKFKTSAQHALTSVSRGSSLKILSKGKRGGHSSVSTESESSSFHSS

Chain of E3 ubiquitin-protein ligase Itchy homolog (Homo sapiens), Q96J02-2 C830A (Q96J02 other isoform, or with tags, fused parts or gaps C830A): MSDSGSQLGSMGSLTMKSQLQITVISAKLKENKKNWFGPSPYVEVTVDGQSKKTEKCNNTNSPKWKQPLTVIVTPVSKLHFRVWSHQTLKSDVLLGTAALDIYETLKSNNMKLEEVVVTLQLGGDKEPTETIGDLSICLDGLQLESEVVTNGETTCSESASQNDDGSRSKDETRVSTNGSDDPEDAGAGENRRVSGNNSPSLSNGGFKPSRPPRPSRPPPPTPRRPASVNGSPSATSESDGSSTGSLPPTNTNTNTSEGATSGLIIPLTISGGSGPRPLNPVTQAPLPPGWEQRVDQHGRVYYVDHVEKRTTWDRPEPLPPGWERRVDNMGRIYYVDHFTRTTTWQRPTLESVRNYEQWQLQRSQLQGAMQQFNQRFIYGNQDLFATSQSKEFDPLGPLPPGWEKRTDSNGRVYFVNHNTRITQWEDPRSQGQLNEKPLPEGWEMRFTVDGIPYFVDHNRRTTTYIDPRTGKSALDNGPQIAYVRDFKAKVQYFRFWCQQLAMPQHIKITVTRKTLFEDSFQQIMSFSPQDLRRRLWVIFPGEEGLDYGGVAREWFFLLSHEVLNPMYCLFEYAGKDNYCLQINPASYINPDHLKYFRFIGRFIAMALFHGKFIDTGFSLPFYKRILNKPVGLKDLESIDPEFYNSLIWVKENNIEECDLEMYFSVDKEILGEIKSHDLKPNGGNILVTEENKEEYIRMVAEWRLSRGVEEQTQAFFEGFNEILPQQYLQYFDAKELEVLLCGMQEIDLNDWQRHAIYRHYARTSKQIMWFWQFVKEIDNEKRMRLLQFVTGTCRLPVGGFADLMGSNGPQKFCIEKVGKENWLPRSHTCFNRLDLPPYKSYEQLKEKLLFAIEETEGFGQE
Chain of erep1_human ENTREP1 (Q15884 whole entry): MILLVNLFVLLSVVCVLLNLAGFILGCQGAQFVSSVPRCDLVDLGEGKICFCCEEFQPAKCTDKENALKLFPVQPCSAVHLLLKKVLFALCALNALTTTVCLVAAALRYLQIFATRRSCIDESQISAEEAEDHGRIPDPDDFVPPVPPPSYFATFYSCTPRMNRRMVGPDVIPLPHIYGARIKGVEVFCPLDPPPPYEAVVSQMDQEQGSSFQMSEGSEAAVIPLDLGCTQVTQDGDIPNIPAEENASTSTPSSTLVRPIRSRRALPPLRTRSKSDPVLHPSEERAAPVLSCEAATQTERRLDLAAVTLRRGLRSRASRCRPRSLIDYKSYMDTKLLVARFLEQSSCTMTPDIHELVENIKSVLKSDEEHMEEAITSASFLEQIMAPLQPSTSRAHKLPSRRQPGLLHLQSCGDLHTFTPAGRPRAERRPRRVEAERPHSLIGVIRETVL

Substance: E3 ubiquitin-protein ligase Itchy homolog (Homo sapiens), Q96J02-2 C830A
- effect of a mutation on the interaction [1]: with no effect
- effect of a mutation on the interaction [2]: with no effect
